The data set concerns the molecule itself. Kind of data set: solid-state NMR (13C-detected MAS, 2D NCA; two sets of peaks); S64V-EmrE in POPC proteoliposomes, 25:1 lipid/EmrE monomer, pH 5.8; 1.1 GHz, MAS 25 kHz, sample temperature 10 ± 5 °C.

B1: S64V-EmrE (natural protein, E. coli, UniProt P23895 1-110, looked up)
chain: MNPYIYLGGAILAEVIGTTLMKFSEGFTRLWPSVGTIICYCASFWLLAQTLAYIPTGIAYAIWVGVGIVLISLLSWGFFGQRLDLPAIIGMMLICAGVLIINLLSRSTPH
notes: also called EmrE mutant S64V
As to B1, the binding result is given as “binds”.

The values above are taken from publication doi:10.1101/2025.01.07.631770, “Backbone and Sidechain ^1H, ^15N and ^13C Resonance Assignments of a Multidrug Efflux Membrane Protein using Solution and Solid-State NMR” (bioRxiv, 2025).
